Experimental data taken from patent US20240294638A1 (LES LABORATOIRES SERVIER, published 2024).

T1: CD94 homodimer (human, UniProt Q13241 32-179, limits assumed)
T1 sequence (looked up): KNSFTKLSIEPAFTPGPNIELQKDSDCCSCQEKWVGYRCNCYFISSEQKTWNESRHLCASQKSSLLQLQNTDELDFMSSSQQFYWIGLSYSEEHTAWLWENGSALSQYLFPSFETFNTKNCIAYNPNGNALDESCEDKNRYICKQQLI


Tests used:
CD94 homodimer = molecular target: T1, CD94 homodimer; assay: SPR
Procedure: (§1) Kinetic binding analysis of anti-NKG2A monoclonal antibodies (mAbs) was performed by Surface Plasmon Resonance (SPR) using a Continuous Flow Microspotter (CFM, Wasatch Microfluidics, Salt Lake City, US) combined with an IBIS MX96 SPR instrument (IBIS Technologies, The Netherlands). The extracellular domains (ECDs) of human his-tagged NKG2A, NKG2C and FLAG-tagged CD94 were co-expressed using an Expi293™ expression system and purified by standard Ni-NTA chromatography followed by anti-Flag M2 affinity gel (A2220, Sigma). Binding kinetics were measured by capturing mAbs on a G-a-hu-IgG Fc SensEye® for 15 minutes using the CFM. After spotting, the SensEye® was positioned in the IBIS MX96 biosensor and immobilized mAbs were fixed by SensEye FixIt kit. Kinetic analysis was performed by applying a kinetic titration series injecting increasing concentrations of antigens from 1.6 nM to 400 nM as 2-fold dilutions. After each cycle of antigen injection, the surface was regenerated by 100 mM H₃PO₄, pH 3. Antigen association and dissociation were measured for 15 minutes. The recorded binding responses were fitted to a simple 1:1 binding model with Scrubber 2.0 software for calculation of the on-rate (kₒₙ or kₐ), off-rate (Koff or kd) and affinity (KD) constants. Binding kinetic parameters were measured as an average of three independent measuring points.
The binding affinities and kinetic parameters of the anti-NKG2A mAbs binding to NKG2A/CD94 and NKG2C/CD94 heterodimers are shown in Table 7. […] None of the mAbs bound to CD94 homodimer (data not shown).

[1] = molecular target: T2, cynomolgus NKG2A and cynomolgus CD94 expressed on transiently transfected CHO-S cells (cynomolgus, UniProt Q68VD2 1-233; Q68VD4 1-179); assay: blocking of PE-conjugated HLA-E pentamer binding to transiently transfected CHO-S cells, flow cytometry (percentage binding) [panel B cNKG2A]
T2 construct: whole, on cells
Procedure: (§2) CHO-S cells were transiently transfected with constructs for expression of human NKG2A and human CD94, human NKG2C and human CD94, cynomolgus NKG2A and cynomolgus CD94, or cynomolgus NKG2C and cynomolgus CD94. Mock transfected CHO-S cells were included in the assay as negative control. A PE-conjugated HLA-E pentamer was tested for binding to the heterodimers in the presence of anti-human NKG2A antibodies in 3-fold serial dilutions from 10 μg/mL down to 14 ng/mL antibody, and 0 μg/mL antibody. The antibodies were allowed to bind for 30 min at 4° C. prior to the addition of the HLA-E pentamer in a 1:50 dilution. The fluorescence intensity of HLA-E binding to the transfected cells was measured by high throughput flow cytometry (IQue screener, Sartorius). Data were transferred to Excel and graphs were generated using GraphPad Prism® software.

[2] = molecular target: NKG2A on primary human NK cells (human, UniProt P26715 1-233); assay: cell-based or functional assay
Sequence of NKG2A on primary human NK cells (P26715 whole entry): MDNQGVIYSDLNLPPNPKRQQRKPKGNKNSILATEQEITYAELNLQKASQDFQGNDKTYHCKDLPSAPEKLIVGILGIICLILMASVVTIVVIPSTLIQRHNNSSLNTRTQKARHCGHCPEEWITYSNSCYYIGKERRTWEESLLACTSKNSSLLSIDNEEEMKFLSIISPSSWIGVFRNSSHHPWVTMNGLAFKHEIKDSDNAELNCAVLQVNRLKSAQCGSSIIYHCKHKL

I225M [3] = molecular target: T3, I225M (Homo sapiens); assay: flow cytometry, CHO-S cells transiently transfected with NKG2A variant and CD94, AF647 goat anti-human IgG secondary (MFI) [cont.), panel 24208]
T3 construct: co-expressed on CHO-S cells; also called human NKG2A I225M / human CD94 heterodimer on CHO-S cells
T3 sequence (P26715 whole entry I225M): as the sequence (P26715 whole entry) above, with I225M counted along it
Procedure: (§3) Six anti-human NKG2A antibodies were tested for binding to the different heterodimers expressed. Antibodies were tested for binding to the transfected cells in 3-fold serial dilutions from 1 μg/mL antibody, and 0 μg/ml antibody, and incubated for 30 min at 4° C. Following a washing step, the cells were incubated with a fluorescent goat anti-human IgG (H+L) secondary antibody (A-21445, Invitrogen) for 30 min at 4° C. in the dark. After a second wash, the cells were tested by high throughput flow cytometry (IQue screener, Sartorius). Data were transferred to Excel and graphs were generated using GraphPad Prism® software. A reference antibody analogue and an isotype control were included for comparison.

[4] = molecular target: T4, recombinant human NKG2A/CD94 heterodimer (extracellular domains) (human, UniProt Q13241 32-179); assay: SPR (IBIS MX96), mAb captured on anti-human IgG Fc, ECD heterodimer injected, 1:1 fit
T4 construct: extracellular domain; ECDs co-expressed in Expi293, purified by Ni-NTA and anti-Flag; also called HuNKG2A/huCD94; NKG2A/CD94 ECDs
Procedure: as §1

[5] = molecular target: T5, recombinant human NKG2C/CD94 heterodimer (extracellular domains) (human, UniProt P26717 94-231; Q13241 32-179); assay: as above
T5 construct: extracellular domain; also called HuNKG2C/huCD94; NKG2C/CD94 ECDs
Procedure: as §1

[6] = molecular target: T6, human NKG2A and human CD94 expressed on transiently transfected CHO-S cells (human, UniProt Q13241 1-179); assay: flow cytometry, transiently transfected CHO-S cells, AF647 goat anti-human IgG secondary (MFI) [cont.), panel 23765]
T6 construct: whole, on cells; also called human NKG2A/CD94 heterodimer
Procedure: (§4) CHO-S cells were transiently transfected with human NKG2A and human CD94, human NKG2C and human CD94, cynomolgus NKG2A and cynomolgus CD94 or cynomolgus NKG2C and cynomolgus CD94 constructs. Mock transfected CHO-S cells were included in the assay as a negative control. Antibodies were tested for binding to the transfected cells in 3-fold dilutions from 30 μg/mL down to 0.5 ng/ml antibody, and 0 μg/mL antibody, and incubated for 30 min at 4° C. Following a washing step, the cells were incubated with a fluorescent goat anti-human IgG (H+L) secondary antibody (A-21445, Invitrogen) for 30 min at 4° C. in the dark. After a second wash, the cells were tested by high throughput flow cytometry (IQue screener, Sartorius). Data were transferred to Excel and graphs were generated using GraphPad Prism® software.

[7] = molecular target: T2, cynomolgus NKG2A and cynomolgus CD94 …; assay: as above
Procedure: as §4

[8] = molecular target: T6, human NKG2A and human CD94 expressed on …; assay: blocking of PE-conjugated HLA-E pentamer binding to transiently transfected CHO-S cells, flow cytometry (percentage binding) [panel A hNKG2A]
Procedure: as §2

[9] = molecular target: T6, human NKG2A and human CD94 expressed on …; assay: flow cytometry, CHO-S cells transiently transfected with NKG2A variant and CD94, AF647 goat anti-human IgG secondary (MFI) [cont.), panel 23765]
Procedure: as §3

I225M [10] = molecular target: T3, I225M; assay: as above
Procedure: as §3

I168S = molecular target: T7, I168S (Homo sapiens); assay: as above
T7 construct: co-expressed on CHO-S cells; also called human NKG2A I168S / human CD94 heterodimer on CHO-S cells
T7 sequence (P26715 whole entry I168S): as the sequence (P26715 whole entry) above, with I168S counted along it
Procedure: as §3

[11] = molecular target: T6, human NKG2A and human CD94 expressed on …; assay: flow cytometry, CHO-S cells transiently transfected with NKG2A variant and CD94, AF647 goat anti-human IgG secondary (MFI) [cont.), panel 24135]
Procedure: as §3

I225M [12] = molecular target: T3, I225M; assay: as above
Procedure: as §3

[13] = molecular target: T6, human NKG2A and human CD94 expressed on …; assay: flow cytometry, transiently transfected CHO-S cells, AF647 goat anti-human IgG secondary (MFI) [cont.), panel 24135]
Procedure: as §4

| Binder | binding result (CD94 homodimer) | binding result [1] | Kd [4] [nM] | koff [4] [s⁻¹] | kon [4] [M⁻¹ s⁻¹] | Kd [5] [nM] | koff [5] [s⁻¹] | kon [5] [M⁻¹ s⁻¹] | further results |
| --- | --- | --- | --- | --- | --- | --- | --- | --- | --- |
| BMS-NKG2A.9 (antibody, human IgG1, kappa, V domains shown) VH: EVQLVESGGGLVKPGGSLRLSCAASGFTFSSHSMNWVRQAPGKGLEWVSAISSSSSYIYYADSVKGRFTISRDNAKNSLYLQMNSLRAEDTAVYYCAREEWGLPFDYWGQGTLVTVSS VL: AIQLTQSPSSLSASVGDRVTITCRASQGISSALAWYQQKPGKAPKLLIYDASSLKSGVPSRFSGSGSGTDFTLTISSLQPEDFATYYCQQFNSYPLTFGQGTRLEIKR | – | – | – | – | – | – | – | – | EC50 (ug/mL) of induced NK cell cytotoxicity, median (n = 7) [2]: 1.07 µg/mL |
| BMS-NKG2A.11 (antibody, human IgG1, kappa, V domains shown) VH: EVQLVESGGGLVKPGGSLRLSCAASGFTFSSHSMNWVRQAPGKGLEWVSAISSSSSYIYYADSVKGRFTISRDNAKNSLYLQMNSLRAEDTAVYYCAREEWGLPFDYWGQGTLVTVSS VL: AIQLTQSPSSLSASVGDRVTITCRASQGIPSALAWYQQKPGKAPKLLIYDASSLKSGVPSRFSGSGSGTDFTLTISSLQPEDFATYYCQQFNSYPLTFGQGTRLEIKR | – | – | – | – | – | – | – | – | EC50 (ug/mL) of induced NK cell cytotoxicity, median (n = 6) [2]: 0.71 µg/mL |
| antibody 23765 (antibody, human IgG1, kappa, L234A L235A, V domains shown, Fully human IgG1-LALA (L234A/L235A), kappa) VH: EVQLVESGGGLVKPGGSLRLSCAASGFTFSCCRMNWVRQAPGKGLEWVSSISSSSSYIYYADSVKGRFTISRDNAKNSLYLQMNSLRAEDTAVYYCARDGWNDVFDYWGQGTLVTVSS VL: EIVLTQSPATLSLSPGERATLSCRASQSVSSYLAWYQQKPGQAPRLLIYDASNRATGIPARFSGSGSGTDFTLTISSLEPEDFAVYYCQQRSNWPLTFGGGTKVEIKR | – | – | 15 | 0.0013 | 88000 | 717 | 0.00156 | 2180 | EC50 (read off the curve) [6]: ~0.04 µg/mL; EC50 (read off the curve) [7]: ~0.02 µg/mL; IC50 (read off the curve) [8]: ~0.6 µg/mL; EC50 (read off the curve) [9]: ~0.01 µg/mL; EC50 (read off the curve) (I225M [10]): ~0.01 µg/mL; EC50 (read off the curve) (I168S): ~0.01 µg/mL |

Now from value to binder, other results behind:

| binding result (CD94 homodimer) | binding result [1] | Kd [4] [nM] | koff [4] [s⁻¹] | kon [4] [M⁻¹ s⁻¹] | Kd [5] [nM] | koff [5] [s⁻¹] | kon [5] [M⁻¹ s⁻¹] | Binder | further results |
| --- | --- | --- | --- | --- | --- | --- | --- | --- | --- |
| no binding | no binding (tested: 10000 ng/ml) | – | – | – | – | – | – | antibody 24208 (antibody, human IgG1, kappa, L234A L235A, V domains shown, Fully human IgG1-LALA (L234A/L235A), kappa; also called mAb 24208; 24208 (IgG1 LALA)) VH: QVQLVESGGGLVKPGGSLRLSCAASGFTFSDYYMRWIRQAPGKGLEWVSHISTSGSTIYYADSVKGRFTISRDNAKNSLYLQMNSLRAEDTAVYYCARDHYYSRGVIGYWGQGTLVTVSS VL: DIQMTQSPSSVSASVGDRVTITCRASQGISSWLAWYQQKPGKAPKLLIYAASSLQSGVPSRFSGSGSGTDFTLTISSLQPEDFATYYCQQANSFPYTFGQGTKLEIKR | EC50 (ug/mL) of induced NK cell cytotoxicity, median (n = 19) [2]: 0.19 µg/mL; EC50 (read off the curve) (I225M [3]): ~0.004 µg/mL |
| no binding | no binding (tested: 10000 ng/ml) | 3.7 | 0.0013 | 340000 | 147 | 0.00098 | 6700 | antibody 24135 (antibody, human IgG1, kappa, L234A L235A, V domains shown, Fully human IgG1-LALA (L234A/L235A), kappa; also called mAb 24135) VH: QVQLQESGPGLVKPSETLSLTCTVSGGSVSSGHYYWSWIRQPPGKGLEWIGYIYYSGSTTYNPSLKSRVSISVDTSKHQFSLKLSSVTAADTAVYYCARWAGSYQPYYYYYGMDVWGQGTTVTVSS VL: not shown | EC50 (read off the curve) [11]: ~0.005 µg/mL; EC50 (read off the curve) (I225M [12]): ~0.006 µg/mL; EC50 (read off the curve) [13]: ~0.02 µg/mL |
